From patent publication US20200057058A1 (MIT, published 2020)

Key:
[1] = molecular target: monomeric streptavidin variant mSA2; assay: calculated from [P]T of the mSA2 binding curve fit and film thickness; design: Calculated Density (density of binding sites within a cross-sectional area of the film): unit not given here
Protocol: To determine the density of binding proteins within a single plane of each thin film, the concentration of accessible binding sites throughout the entire film—taken directly from the binding assay curve fits (Table 4)—was multiplied by the corresponding film thickness. When accounting for differences in film thickness, the density of oligomerized rcSso7d.SA proteins capable of binding mSA2 is found to increase […] with degree of oligomerization (Table 5). This calculated density decreases, though, between the 1×SP25k and 2×SP25k thin films, indicating a lower density of accessible binding sites in the protein domains of the oligomerized rcSso7d.SA conjugate film. The total number of predicted binding sites within each thin film assuming complete accessibility should be proportional to the […] of rcSso7d. SA in the conjugate with PNIPAM. Reasonable estimates for relative values of the predicted number of sites can thus be obtained by normalizing the weight fraction of rcSso7d. SA in each conjugate by the corresponding weight fraction in 1×SP25k. Comparing these predicted relative number of binding sites to the calculated values (FIG. 6C), all oligomeric rcSso7d.SA conjugates are found to contain fewer proteins capable of binding mSA2 than predicted. It is likely that this effect results from a combination of steric blocking of binding sites by bound mSA2 molecules as well as a lack of the free volume required to incorporate mSA2 molecules into the protein nanodomains at high degrees of binding. Despite the lower than expected binding capacity of the conjugate thin films, these biosensors contain approximately […] the quantity of accessible binding sites compared to rcSso7d.SA monolayers on a volumetric basis (Table 4). Recognizing that each plane (and a monolayer) of rcSso7d.SA proteins is roughly 1-2 nm thick,⁸⁰ the studied thin films can be determined to contain approximately 100 more planes of protein than a monolayer.

[2] = molecular target: monomeric streptavidin variant mSA2; assay: fluorescent binding assay, labeled mSA2 in PBS on thin film; quadratic curve fit
Protocol: (§1) The binding function of rcSso7d.SA oligomer-PNIPAM thin films was measured using fluorescently-labeled monomeric streptavidin (mSA2) and fluorescently-labeled streptavidin (SA). Details for the expression, purification, and fluorescent labeling of mSA2 are provided below. Samples were prepared by serial dilution of SA or mSA2 in PBS (pH 7.4), human urine (diluted to 50% v/v in PBS, pH 7.4), or blood serum (obtained as the supernatant by centrifuging whole blood at 1500×g for 10 minutes, then diluted to 50% v/v in PBS, pH 7.4). 0.5 μL drops of solutions containing serially diluted fluorescent mSA2 and fluorescent SA samples in PBS (pH 7.4) were gently applied to the surface of each bioconjugate thin film. Films were incubated in a sealed chamber saturated with water vapor at room temperature to prevent to prevent drying of the applied fluorescent samples. After 1 hour, films were thoroughly rinsed with water for 10 seconds (a time determined to be sufficient to remove unbound molecules from the film, see FIG. 33, dried under filtered airflow, and immediately analyzed for fluorescent signal. Fluorescence microscopy images were acquired at 4× magnification using a Cy5 filter set and exposure time of 5000 ms on an Olympus IX-81 inverted fluorescence microscope with an AxioCam HRC CCD camera. Fluorescent intensity was calculated using ImageJ software⁶⁷ by determining the average fluorescent signal in a rectangular area of the fluorescent image free of defects and occupying no less than half of the full sample application area.
Binding assays were performed by adding serially diluted solutions of fluorescently-labeled mSA2 to thin films of each studied conjugate (FIG. 6A). To maintain consistent transport properties between samples, each oligomer was conjugated to the same previously-synthesized 25 kDa PNIPAM sample. Analyte bound to thin films was quantified using fluorescence microscopy, and binding curves were fit to the collected mean fluorescent intensity (MFI) data using the following equation: […]

[3] = molecular target: monomeric streptavidin variant mSA2; assay: fluorescent binding assay, labeled mSA2; signal three standard deviations above blank
Protocol: as §1
Oligomerization of rcSso7d.SA also brings about a decrease in biosensor limit of detection (LOD). […] While all thin films display improvements up to threefold in LOD over the monolayer, the trend in LOD with respect to degree of oligomerization is non-monotonic. The primary factor that is expected to affect LOD in the studied biosensors is number of binding sites, as more binding sites enable a greater number of analyte molecules to be captured and shifts analyte-receptor equilibrium in favor of binding events.

streptavidin [4] = molecular target: T1, streptavidin (UniProt P22629 37-163, limits assumed); assay: fluorescent binding assay: Alexa Fluor 647-labeled streptavidin applied to the thin film; the sheet names the film 4xSP25k, the legend 4xSP30k
T1 construct: It was used without a stated label in the sandwich assays; also called SA
T1 sequence (P22629 37-163 limits assumed): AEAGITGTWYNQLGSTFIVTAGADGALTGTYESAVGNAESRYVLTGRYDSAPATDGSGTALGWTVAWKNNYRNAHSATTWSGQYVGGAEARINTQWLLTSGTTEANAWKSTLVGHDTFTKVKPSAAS
Protocol: as §1, with “Films were incubated in a sealed chamber saturated with water vapor at room temperature to prevent to prevent drying of the applied fluorescent samples.” left out

streptavidin [5] = molecular target: T1, streptavidin; assay: fluorescent binding assay: Alexa Fluor 647-labeled streptavidin applied to the thin film; the sheet names the film 2xSP25k, the legend 2xSP17k
Protocol: as §1, with “Films were incubated in a sealed chamber saturated with water vapor at room temperature to prevent to prevent drying of the applied fluorescent samples.” left out

streptavidin [6] = molecular target: T1, streptavidin; assay: sandwich assay: SA in 50% urine, biotin-HRP/TMB detection
Protocol: (§2) Each well was submerged in 1 mL of 1% BSA in Milli-Q water, and the 12-well plate was incubated at 37° C. for 30 minutes. The wells were rinsed twice by adding 2 mL of Milli-Q water and gently shaking the well plate at 70 rpm for 5 minutes. 1 mL of streptavidin diluted in PBS, urine, or blood serum (prepared as described in the Fluorescent Assays section) containing 0.1% BSA was then added to each well, and the well plate was shaken at 70 rpm for 4 hours at room temperature. Wells were rinsed twice with 2 mL of Milli-Q water then twice with 2 mL of 0.1% BSA in Milli-Q water by shaking at 70 rpm for 5 minutes. After rinsing, wells were submerged in 1 mL of 200 ng/mL biotin-HRP in Milli-Q water containing 0.1% BSA, and the well plate was shaken at 70 rpm for 1 hour at room temperature. Wells were then rinsed with water and 0.1% BSA as described previously. 1 mL of solution from a Pierce TMB substrate kit (Thermo Fisher Scientific) was added to each well, and the well plate was shaken vigorously at 125 rpm for 15 minutes at room temperature. 1 mL of 2M H2SO4 was added to each well, and the absorbance at 450 nm was read using a Tecan Infinite M200 PRO plate reader.
(§3) The general procedure for this proof-of-concept experiment is diagrammed in FIG. 28. Films were first exposed to SA solutions and rinsed to remove unbound analyte. Taking advantage of the strong interaction between SA and biotin, thin films were then submerged in a solution of biotinylated horseradish peroxidase (biotin-HRP). Bound SA was detected colorimetrically through the HRP-mediated oxidation of 3,3′,5,5′-tetramethylbenzidine (TMB). Attempts to perform this assay using mSA2 as the analyte were unsuccessful, even when run on an rcSso7d.SA monolayer.

streptavidin [7] = molecular target: T1, streptavidin; assay: sandwich assay, SA in 50% blood serum, detection with biotin-HRP and TMB
Protocol: as §2, §3

streptavidin [8] = molecular target: T1, streptavidin; assay: fluorescent binding curve, labeled SA in 50% urine, 4 h; quadratic fit
streptavidin [9] = molecular target: T1, streptavidin; assay: sandwich assay: SA in 50% blood serum, biotin-HRP/TMB detection
Protocol: as §2, §3

[10] = molecular target: monomeric streptavidin variant mSA2; assay: fluorescent binding curve, labeled mSA2 in 50% urine, 4 h; quadratic fit
[11] = molecular target: monomeric streptavidin variant mSA2; assay: fluorescent binding curves, labeled mSA2 in 50% urine or 50% blood serum, 4 h
streptavidin [12] = molecular target: T1, streptavidin; assay: fluorescent binding curve, labeled SA in 50% blood serum, 4 h; quadratic fit
[13] = molecular target: monomeric streptavidin variant mSA2; assay: fluorescent binding curve, labeled mSA2 in 50% blood serum, 4 h; quadratic fit
streptavidin [14] = molecular target: T1, streptavidin; assay: fluorescent binding assay, labeled SA in 50% urine on thin film, 4 h exposure
[15] = molecular target: monomeric streptavidin variant mSA2; assay: fluorescent binding assay, labeled mSA2 in 50% urine on thin film, 4 h exposure
Protocol: as §1, with “After 1 hour, films were thoroughly rinsed with water for 10 seconds (a time determined to be sufficient to remove unbound molecules from the film, see FIG. 33, dried under filtered airflow, and immediately analyzed for fluorescent signal.” left out
(§4) To evaluate how the apparent size-based diffusion properties translated to biosensing capabilities, binding curves were measured using SA and mSA2 solutions in buffer. Binding curves were fit with a quadratic model that is a function of three parameters: the average MFI per binding event a, the total concentration of binding sites [P]T, and the apparent dissociation constant K_{d,app} describing the binding equilibrium between analyte and binding sites within the thin film.

streptavidin [16] = molecular target: T1, streptavidin; assay: fluorescent binding assay, labeled SA in 50% blood serum on thin film, 4 h exposure
streptavidin [17] = molecular target: T1, streptavidin; assay: apparent Kd (Kd,app); fluorescent binding curve, labeled SA in 50% urine, 4 h; quadratic fit
[18] = molecular target: monomeric streptavidin variant mSA2; assay: fluorescent binding assay, labeled mSA2 in 50% blood serum on thin film, 4 h exposure
Protocol: as §1, with “After 1 hour, films were thoroughly rinsed with water for 10 seconds (a time determined to be sufficient to remove unbound molecules from the film, see FIG. 33, dried under filtered airflow, and immediately analyzed for fluorescent signal.” left out
as §4

[19] = molecular target: monomeric streptavidin variant mSA2; assay: apparent Kd (Kd,app); fluorescent binding curve, labeled mSA2 in 50% urine, 4 h; quadratic fit
streptavidin [20] = molecular target: T1, streptavidin; assay: apparent Kd (Kd,app); fluorescent binding curve, labeled SA in 50% blood serum, 4 h; quadratic fit
[21] = molecular target: monomeric streptavidin variant mSA2; assay: apparent Kd (Kd,app); fluorescent binding curve, labeled mSA2 in 50% blood serum, 4 h; quadratic fit

B1: 4xSP25k thin film (4x rcSso7d.SA-PNIPAM conjugate, 25 kDa PNIPAM) (designed binder)
chain: MGSSHHHHHHSSGLVPRGSHMCATVKFTYQGEEKQVDISKIKIVARDGQYIDFKYDEGGGAYGYGWVSEKDAPKELLQMLEKQGGGGSGGGGSMATVKFTYQGEEKQVDISKIKIVARDGQYIDFKYDEGGGAYGYGWVSEKDAPKELLQMLEKQGGGGSGGGGSMATVKFTYQGEEKQVDISKIKIVARDGQYIDFKYDEGGGAYGYGWVSEKDAPKELLQMLEKQGGGGSGGGGSMATVKFTYQGEEKQVDISKIKIVARDGQYIDFKYDESGGAYGYGWVSEKDAPKELLQMLEKQ
modifications: maleimide end-functionalized PNIPAM (25 kDa) on the N-terminal Cys; film lightly crosslinked with glutaraldehyde
notes: Four rcSso7d.SA repeats joined by (G4S)2 linkers in one chain
Q: What does the source list for B1?
A: Calculated Density (density of binding sites within a cross-sectional area of the film) [1]: 62; Calculated Ratio (film thickness x [P]T relative to the 1xSP25k thin film) [1]: 1.31; [P]T (total concentration of accessible binding sites) [2]: 3.7 µM; limit of detection (LOD) [3]: 140 nM; binding result (streptavidin [4]): binds

B2: 1xSP25k thin film (1x rcSso7d.SA-PNIPAM conjugate, 25 kDa PNIPAM) (designed binder)
chain: MGSIHHHHHHSSGLVPRGSHMCATVKFTYQGEEKQVDISKIKIVARDGQYIDFKYDEGGGAYGYGWVSEKDAPKELLQMLEKQ
modifications: maleimide end-functionalized PNIPAM (25 kDa) on the N-terminal Cys; film lightly crosslinked with glutaraldehyde
Q: For B2, which “Calculated Density (density of binding sites within a cross-sectional area of the film)” value [1] is on record?
A: 48

Q: What about the “Calculated Ratio (film thickness x [P]T relative to the 1xSP25k thin film)” value [1] of the same binder?
A: 1

Q: What about the “[P]T (total concentration of accessible binding sites)” value [2] of the same binder?
A: 3.1 µM

Q: What about the “limit of detection (LOD)” value [3] of the same binder?
A: 290 nM

B3: 2xSP25k thin film (2x rcSso7d.SA-PNIPAM conjugate, 25 kDa PNIPAM) (designed binder)
chain: MGSSHHHHHHSSGLVPRGSHMCATVKFTYQGEEKQVDISKIKIVARDGQYIDFKYDEGGGAYGYGWVSEKDAPKELLQMLEKQGGGGSGGGGSMATVKFTYQGEEKQVDISKIKIVARDGQYIDFKYDEGGGAYGYGWVSEKDAPKELLQMLEKQGG
modifications: maleimide end-functionalized PNIPAM (25 kDa) on the N-terminal Cys; film lightly crosslinked with glutaraldehyde
notes: Two rcSso7d.SA repeats joined by a (G4S)2 linker in one chain
Q: For B3, which “Calculated Density (density of binding sites within a cross-sectional area of the film)” value [1] is on record?
A: 43

Q: And the “Calculated Ratio (film thickness x [P]T relative to the 1xSP25k thin film)” value [1]?
A: 0.9

Q: What about the “[P]T (total concentration of accessible binding sites)” value [2] of the same binder?
A: 3.3 µM

Q: What about the “limit of detection (LOD)” value [3] of the same binder?
A: 200 nM

Q: Does B3 bind (streptavidin [5])?
A: binds

B4: 3xSP30.3k thin film (3x rcSso7d.SA-PNIPAM conjugate, PNIPAM Mn 30.3 kDa) (designed binder)
chain: MGSSHHHHHHSSGLVPRGSHMCATVKFTYQGEEKQVDISKIKIVARDGQYIDFKYDEGGGAYGYGWVSEKDAPKELLQMLEKQGGGGSGGGGSMATVKFTYQGEEKQVDISKIKIVARDGQYIDFKYDEGGGAYGYGWVSEKDAPKELLQMLEKQGGGGSGGGGSMATVKFTYQGEEKQVDISKIKIVARDGQYIDFKYDEGGGAYGYGWVSEKDAPKELLQMLEKQGG
modifications: maleimide end-functionalized PNIPAM (Mn 30.3 kDa) on the N-terminal Cys; film lightly crosslinked with glutaraldehyde
Q: How did the LOD (streptavidin [6]) turn out when B4 was run?
A: 28 nM

Q: And the “LOD relative to rcSso7d.SA monolayer” value (streptavidin [7])?
A: 2 fold

Q: What about the “[P]T (total concentration of binding sites)” value (streptavidin [8]) of the same binder?
A: 0.27 nM

Q: What about the LOD (streptavidin [9]) of the same binder?
A: 87 nM

Q: What about the “[P]T (total concentration of binding sites)” value [10] of the same binder?
A: 16 nM

Q: What about the “LOD relative to rcSso7d.SA monolayer” value [11] of the same binder?
A: 2 orders of magnitude lower

Q: What about the “[P]T (total concentration of binding sites)” value (streptavidin [12]) of the same binder?
A: 0.23 nM

Q: What about the “[P]T (total concentration of binding sites)” value [13] of the same binder?
A: 5.7 nM

Q: What about the “Limit of Detection” value (streptavidin [14]) of the same binder?
A: 1100 nM

Q: What about the “Limit of Detection” value [15] of the same binder?
A: 12 nM

Q: And the “Limit of Detection” value (streptavidin [16])?
A: 1800 nM

Q: And the Kd (streptavidin [17])?
A: 30 µM

Q: What about the “Limit of Detection” value [18] of the same binder?
A: 25 nM

Q: What about the Kd [19] of the same binder?
A: 29 µM

Q: What about the Kd (streptavidin [20]) of the same binder?
A: 40 µM

Q: And the Kd [21]?
A: 20 µM
